Molecular target: human TIGIT-Fc (human) (UniProt Q495A1)
Test: CD155 competition ELISA, single point

Sequence of human TIGIT-Fc (human) (Q495A1 22-141 limits assumed): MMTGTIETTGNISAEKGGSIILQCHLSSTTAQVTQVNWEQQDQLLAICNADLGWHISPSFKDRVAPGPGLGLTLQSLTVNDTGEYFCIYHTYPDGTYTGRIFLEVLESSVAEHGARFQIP

B1: TIGIT-SC153 (Fc fusion)
VHH: EVQLVESGGGLVQPGGSLRLSCAASGNTFSGGFMGWFRQAPGKEREWVASVLRGGYTWYADSVKGRFTISADNSKNTAYLQMNSLKPEDTAVYYCARAGGCSGTSCYDGWFDPWGQGTLVTVSS
- OD (450 nm): 0.8 OD
